Assays:
[1] = target: Myc-tagged Rhinolophus affinis ISG15 S77C (Rhinolophus affinis); assay: cross-linking
[2] = target: Myc-tagged wild-type Mops condylurus ISG15 (Mops condylurus); assay: cross-linking

| stoichiometry N [1] | stoichiometry N [2] | Substance |
| --- | --- | --- |
| 2 | – | Myc-tagged Rhinolophus affinis ISG15 S77C (natural protein) |
| – | 2 | Myc-tagged wild-type Mops condylurus ISG15 (natural protein) |

Source: PMC11821529
